Changes are numbered by the printed parent chain.
Experiments:
[1] = target: T1, hITIP0031-G1T4k.one//VHn-G1T4h.one.H435R
T1 chain 1: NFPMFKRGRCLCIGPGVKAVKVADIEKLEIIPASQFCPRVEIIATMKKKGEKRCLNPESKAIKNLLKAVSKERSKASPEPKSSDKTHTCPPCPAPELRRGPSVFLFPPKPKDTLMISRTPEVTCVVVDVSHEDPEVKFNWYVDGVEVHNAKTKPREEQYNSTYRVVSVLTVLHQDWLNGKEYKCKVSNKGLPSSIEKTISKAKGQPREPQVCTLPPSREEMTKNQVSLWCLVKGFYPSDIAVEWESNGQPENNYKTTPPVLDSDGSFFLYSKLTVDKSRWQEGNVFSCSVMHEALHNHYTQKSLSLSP
T1 chain 2: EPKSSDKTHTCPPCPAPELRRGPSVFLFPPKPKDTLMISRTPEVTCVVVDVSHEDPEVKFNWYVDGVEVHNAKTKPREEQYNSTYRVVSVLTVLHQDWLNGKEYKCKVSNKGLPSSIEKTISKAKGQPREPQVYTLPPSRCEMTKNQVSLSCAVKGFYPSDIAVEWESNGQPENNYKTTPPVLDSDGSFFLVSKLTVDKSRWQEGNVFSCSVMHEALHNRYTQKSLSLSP

[2] = target: T2, hCXCL11.0037-G1T4k.one//VHn-G1T4h.one.H435R
T2 chain 1: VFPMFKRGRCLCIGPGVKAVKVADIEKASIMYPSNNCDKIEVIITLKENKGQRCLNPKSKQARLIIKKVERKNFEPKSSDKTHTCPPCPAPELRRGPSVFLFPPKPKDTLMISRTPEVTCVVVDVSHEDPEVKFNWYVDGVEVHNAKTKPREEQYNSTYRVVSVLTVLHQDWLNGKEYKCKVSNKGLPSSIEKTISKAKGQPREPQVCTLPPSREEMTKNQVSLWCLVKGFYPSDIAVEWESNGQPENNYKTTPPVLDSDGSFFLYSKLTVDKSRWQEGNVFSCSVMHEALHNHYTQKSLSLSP
T2 chain 2: T1 chain 2

[3] = target: T3, hITIP0025-G1T4k.one//VHn-G1T4h.one.H435R
T3 chain 1: T1 chain 1 with N1G
T3 chain 2: T1 chain 2

[4] = target: T4, hCXCL11.0039-G1T4k.one//VHn-G1T4h.one.H435R
T4 chain 1: T2 chain 1 with V1Y
T4 chain 2: T1 chain 2

[5] = target: T5, hITIP0022-G1T4k.one//VHn-G1T4h.one.H435R
T5 chain 1: T1 chain 1 with N1D
T5 chain 2: T1 chain 2

[6] = target: T6, hCXCL11.0035-G1T4k.one//VHn-G1T4h.one.H435R
T6 chain 1: T2 chain 1 with V1S
T6 chain 2: T1 chain 2

[7] = target: T7, hCXCL11.0030-G1T4k.one//VHn-G1T4h.one.H435R
T7 chain 1: T2 chain 1 with V1M
T7 chain 2: T1 chain 2

[8] = target: T8, hITIP0023-G1T4k.one//VHn-G1T4h.one.H435R
T8 chain 1: T1 chain 1 with N1E
T8 chain 2: T1 chain 2

B1: human dipeptidyl peptidase IV (human DPPIV, hDPPIV) (Biolegend, 764102) (protein)
chain: NKGTDDATADSRKTYTLTDYLKNTYRLKLYSLRWISDHEYLYKQENNILVFNAEYGNSSVFLENSTFDEFGHSINDYSISPDGQFILLEYNYVKQWRHSYTASYDIYDLNKRQLITEERIPNNTQWVTWSPVGHKLAYVWNNDIYVKIEPNLPSYRITWTGKEDIIYNGITDWVYEEEVFSAYSALWWSPNGTFLAYAQFNDTEVPLIEYSFYSDESLQYPKTVRVPYPKAGAVNPTVKFFVVNTDSLSSVTNATSIQITAPASMLIGDHYLCDVTWATQERISLQWLRRIQNYSVMDICDYDESSGRWNCLVARQHIEMSTTGWVGRFRPSEPHFTLDGNSFYKIISNEEGYRHICYFQIDKKDCTFITKGTWEVIGIEALTSDYLYYISNEYKGMPGGRNLYKIQLSDYTKVTCLSCELNPERCQYYSVSFSKEAKYYQLRCSGPGLPLYTLHSSVNDKGLRVLEDNSALDKMLQNVQMPSKKLDFIILNETKFWYQMILPPHFDKSKKYPLLLDVYAGPCSQKADTVFRLNWATYLASTENIIVASFDGRGSGYQGDKIMHAINRRLGTFEVEDQIEAARQFSKMGFVDNKRIAIWGWSYGGYVTSMVLGSGSGVFKCGIAVAPVSRWEYYDSVYTERYMGLPTPEDNLDHYRNSTVMSRAENFKQVEYLLIHGTADDNVHFQQSAQISKALVDVGVDFQAMWYTDEDHGIASSTAHQHIYTHMSHFIKQCFSLP
[1]
  cleavage by hDPPIV (LC/MS mass): showed no mass change suggestive of peptide bond cleavage by hDPPIV treatment
[2]
  cleavage by hDPPIV (LC/MS mass): showed no mass change suggestive of peptide bond cleavage by hDPPIV treatment
[3]
  cleavage by hDPPIV (LC/MS mass): showed no mass change suggestive of peptide bond cleavage by hDPPIV treatment
[4]
  cleavage by hDPPIV (LC/MS mass): showed no mass change suggestive of peptide bond cleavage by hDPPIV treatment
[5]
  cleavage by hDPPIV (LC/MS mass): showed no mass change suggestive of peptide bond cleavage by hDPPIV treatment
[6]
  cleavage by hDPPIV (LC/MS mass): showed no mass change suggestive of peptide bond cleavage by hDPPIV treatment
[7]
  cleavage by hDPPIV (LC/MS mass): showed no mass change suggestive of peptide bond cleavage by hDPPIV treatment
[8]
  cleavage by hDPPIV (LC/MS mass): showed no mass change suggestive of peptide bond cleavage by hDPPIV treatment

Reference: patent US20260217779
